Results: publication PMC11020826

Target: PYE-GFP (Arabidopsis) (UniProt Q9SN74)
Test: FRET or BRET; FRET-APB (acceptor photobleaching) in nuclei of transiently transformed tobacco leaf epidermis cells; GFP donor, mCherry acceptor; ß-estradiol-induced; n = 15 nuclei; negative control donor only

Chain of UniProt Q9SN74 (Q9SN74 whole entry): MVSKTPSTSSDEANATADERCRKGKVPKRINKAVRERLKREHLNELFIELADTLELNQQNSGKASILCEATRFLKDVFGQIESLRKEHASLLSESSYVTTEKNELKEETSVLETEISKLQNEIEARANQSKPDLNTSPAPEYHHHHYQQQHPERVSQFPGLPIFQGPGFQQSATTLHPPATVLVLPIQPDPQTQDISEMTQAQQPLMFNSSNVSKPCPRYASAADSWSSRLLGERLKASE

## OLV-mCherry (natural protein)
  FRET efficiency: 3.5%
